Test: yeast display, Sf9 membrane polyspecificity reagent, FACS + sequencing; frameworks hold sequencing errors
How it was run: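 Polyreactivity labels are assigned by the sorting gate from which each nanobody was recovered. The gates were low and high (top ~1%), set on anti-HA fluorescence for expression and streptavidin fluorescence for reagent binding. Before sorting, galactose-induced (36–48 hours) yeast display cells were stained for 1 hour at 4 °C with 10% biotinylated, detergent-solubilized Sf9 membrane reagent.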

Row | Sequence | polyreactivity (PSR sort gate)
1 | QVQLVESGGGLVQAGGSLRLSCASSGSTFDANAMGWYRQAPGKERELVAAITSNGGSTYYADSVKGRFTISRDNAKNTVYLQMNSLKPEDTAVYYCATEQHTVQDYDYWGQGTQVTVSS | low polyreactivity
2 | QVQLVESGGGLVQAGGSLRLSCASSGSTFEANAMGWYRQAPGKERELVAVITWTGGSTYYADSVKGRFTISRDNAKNTLYLQMNSLKPEDTAVYYCDADGVVPGRFFWPAHEYEYWGQGTQGTVSS | low polyreactivity
3 | QVQLVESGGGLVQAGGSLRLSCASSGSTFNRYAMVWYRQAPGKERELVAAISGSGSSTYYADSVKGRFTISRDNAKNTVYLQMNSLKPEDNAVYYCAAVRYHKFREYNSWGQGTQVTVSS | high polyreactivity
4 | QVQLVESGGGLVQAGGSLRLSCASSGSTFNSYAMGWYRQAPGKERELVAAISWSGGSTYYADSVKGRFTISRDNAKNTVYLQMNSLKPEDTAVYYCNADYWWEYAYVVDYWGQGTQVTVSS | low polyreactivity
5 | QVQLVESGGGLVQAGGSLRLSCASSGSTFSYYDMGWYRQAPGKERELVAAISWNGGTTYYADSVKGRFTISRDNAKNTVYLQMNSLKPEDTAVYYCAATWDFYWAPYDSWGQGTQVSVSS | low polyreactivity
6 | QVQLVESGGGLVQAGGSLRLSCASSGSTFTPNAMGWYRQAPGKERELVASNYTTGGNTYYADSVKGRFTNSRDNAKNTVYLQMNSLKPEDTAVYYCNARQALVWKWSWYSPGYDYWGQGTQVTVSS | low polyreactivity
7 | QVQLVESGGGLVQAGGSLRLSCASSGYILRSNAMVWYRQAPGKEREFVAAITYSGGTTYYADSVKGRFTISRDNAKNTVYLQMNSLKPEDTAVYYCNADYGYYKLDYWGQGTQVTVSS | low polyreactivity
8 | QVQLVESGGGLVQAGGSLRLSCASSGYIYIVNAMGWYRQAPGKERELDAAINSSGGNTYYADSVKGRFTISRDNAKNTVYLQMNSLKPEDTGVYYCAADQAKDISFEYDYWGQGTQVTVSS | low polyreactivity
9 | QVQLVESGGGLVQAGGSLRLSCASSGYTFVYYAMGWYRQAPGKERELVAAINVSDGNTFYADSVKGRFTISRDNAKNTVYLQMNSLIPEDTAVYYCAADYYPYPPTSEYGYWGQGTQVTVSS | low polyreactivity
10 | QVQLVESGGGLVQAGGSLRLSCASSVRIFEVYAMGSYRQAPGKERELVADITYSGGSTYYADSVKGRFTISRDNAMNTVYLQMNSLKPEDTAVYYCAADVTFVHRYEYYRSYDYWGQGTQVTVSS | low polyreactivity
11 | QVQLVESGGGLVQAGGSLRLSCATSGFTLLKNAMGWYRQAPGKERELVAAIRQRGTTTYYADSVKGRFTISRDNAKNTVYLQMNSLKPEDTAVYSCNAGRRTGRYGYWGQGTQVTVSS | high polyreactivity
12 | QVQLVESGGGLVQAGGSLRLSCAVSGGLFSFYAMGWYRQAPGKERELVAAISSGGTTYYADSVKGRFTISRDNAKNTVYLQMNSLKPEDTAVYYCALLVGHNYWGQGTQVTVSS | low polyreactivity
13 | QVQLVESGGGLVQAGGSLRLSCCASGFTVSSYARAWYRQAPGKERELVAAITYRGGSTYYADSVKGRFTISRDNAKNTVFLLMNSLKPEDTAVYYCAARWGYRMYWGQGTQVTVSS | high polyreactivity
14 | QVQLVESGGGLVQAGGSLRLSCDASGFIFGYYAMGWYRHAPGKERELVAAISRGDTSTYYADSVKGRFTISRDNAKNTVYLQMYSLKPEDTAVYYCAADWTGYGYYYWGQGTQVTVSS | low polyreactivity
15 | QVQLVESGGGLVQAGGSLRLSCDASGFIFPYYAMGWYRQAPGKERELVARITRGGRTYYADSVKGRFTISRDNAKNTVYLQMNSLKPEDTAVYYCATTGSSYFHSFEYDYWGQGTQVTVSS | low polyreactivity
16 | QVQLVESGGGLVQAGGSLRLSCDASGFIFTGNVMGWYRQAPGKERELVAGITYTSGSTYYADSVKGRFTISRDYAKNTVYLQMNSLKPEDTAVYYCAAEITRHYVFGDDYWGQGTQVTVSS | low polyreactivity
17 | QVQLVESGGGLVQAGGSLRLSCDASGFTFRAYPIGWYREAPGKERELVAAITYSGGRTYYADSVKGRFTISRDNAKNTVYLQMNSLKPEDTAVYYCANYDYWGQGTQVTVSS | high polyreactivity
18 | QVQLVESGGGLVQAGGSLRLSCDASGFTFYRYAMGWYRQAPGKERELVAAISSSGSSTYYADSVKGRFTISRDNAKNTVYLQMNSLKPEDTAVYYCAKRLGGSRPYYYWGQGTQVTVSS | high polyreactivity
19 | QVQLVESGGGLVQAGGSLRLSCDASGIIFPRYAMGGYRQAPGKERELVAAITIGGRTNYADSVKGRFTISRDNAKNTVYLQMTSLKPEDTAVYYCAAQTYVPYYEYDYWGQGTQVTVSS | low polyreactivity
20 | QVQLVESGGGLVQAGGSLRLSCDASGIIFQYYAMGWYRHAPGKERELVAAISWSGGSTYYADSVKGRFTISRDNAKNTVYLQMNSLKPEDTAVYFCAARSRSFWPYEGDYWGQGTQVTLSS | low polyreactivity
21 | QVQLVESGGGLVQAGGSLRLSCDASGITFDDYSRGWYRQAPGKERELVAAISGSGGSTYYADSVKGRFTISRDNAKNTVFLQMHSLKPEDTAVYYCAASGPEGQYLWYDYWGKGTQVTVSS | high polyreactivity
22 | QVQLVESGGGLVQAGGSLRLSCDASGITFGYYAMGWYRQAPGKERELVAAISNSGRTYYADSVKGRFTISRDNAKNSVYLQMNSLKPEDTAVYYCAADDAYYDFYFWGQGTQVTVSS | low polyreactivity

Row | Sequence | polyreactivity (PSR sort gate)
23 | QVQLVESGGGLVQAGGSLRLSCDASGITSHWYVMGWYRQAPGKERELVAAINSSGGRTSYADSVKGRFTISRDNAKNTVYLQMNSLKPEYTAVYYCAAGYTHSYFLGATGKVDYWGQGTQVTVSS | low polyreactivity
24 | QVQLVESGGGLVQAGGSLRLSCDASGLIFYSNAMGWYRQAPGKERELVAAISSSGGSTYYADCVKGRFTISRDNAKNTVYLQMNSLKPEDTAVYFCAAAGDDYWGQGTQVTVSS | low polyreactivity
25 | QVQLVESGGGLVQAGGSLRLSCDASGLTFRLYTMGWYRQAPGKETELGAAITYSGDSTYYADSVKGRFTISRDNAKNTDYLQMNSLKPEDTAVYYCAARKYYARYYWGQGTQVTVSW | high polyreactivity
26 | QVQLVESGGGLVQAGGSLRLSCDASGLTFSWYAMGWSRQAPGKERELVAAISRSGGSTYYADSVKGRFSISRDKAKNTVYLQMNSLKPEDTGVYYCAAETDIAPDYDYWGQGTQVTVSS | low polyreactivity
27 | QVQLVESGGGLVQAGGSLRLSCDASGNTYLNALGWYRQAPGKERELVAAISKGGADTYYADSVKGRFTISRDNAKNTVYLQMNSLKPEDTAVYYCAADGYADGWWVEYPWTYDYWGQGTQVTVSS | low polyreactivity
28 | QVQLVESGGGLVQAGGSLRLSCDASGRIFGYYTMGWYRQAPGKERELVAAISNSGVSTYYADSVKGRFTISRDNAKNTVYLQMNSLKPEDTAVYYCNARLYSYYKFNYWGQGTQVTVSS | high polyreactivity
29 | QVQLVESGGGLVQAGGSLRLSCDASGRIFYFYAMGWYRQAPGKESELVAAISTSGGSTYYADSVKGRFTISRDNAKNTVYLQMNSLKPEDTAVYYCAARYRYYGSEYDYWGQGTQVTVSS | low polyreactivity
30 | QVQLVESGGGLVQAGGSLRLSCDASGRIFYRYVMGWYRQAPGKERELVAAIRNSGGSTYYADSVKGRFTISRDNAKNTVYLQMNSMKPEDTAVYYCAKRYGTSFYVGSAKIGYDYWGQGTQVTLSS | high polyreactivity
31 | QVQLVESGGGLVQAGGSLRLSCDASGRILHYYAMGWYRQAPGKERELVATISISGGNTRYADSVKGRFTISRDNAKNTVYLQMNSLKPEDTAVYYCDARPYAGFDNWGQGTQVTVSS | high polyreactivity
32 | QVQLVESGGGLVQAGGSLRLSCDASGRTFNYNAMGWYRQAPGKERELVAAISGNGGNTYYADSVKWRFTISRDNAKNTVYLQMNSLKPEDTAGYYCNAVYRYYREWKYDYWGQGTQVTVSS | high polyreactivity
33 | QVQLVESGGGLVQAGGSLRLSCDASGRTFYANDMGWYRQAPGKERELVAAISSSVTSTHYADSVKGRFTISRDNAKNTVYLQMNSLKPEDTAVYYCNKDPIREVQPPGPSEMDYWGQGTQVTVSS | low polyreactivity
34 | QVQLVESGGGLVQAGGSLRLSCDASGRTSRWNAMGCYRQAPGKERELVAAISSGSSTTYADSVKGRFTISRDNAKNTVYLQMNSLKPEATAVYYCNAKSGSRFVYRRYYTYNSWGQGTQVTVSS | high polyreactivity
35 | QVQLVESGGGLVQAGGSLRLSCDASGSIFDGYGMGWYRQAPGKERELVASITWNDGSTYYAASVKGRFTISRDNATNTVYLQMNSLKPEDTAVYYCAADQWGYEYDYWGQGTQVTVSS | low polyreactivity
36 | QVQLVESGGGLVQAGGSLRLSCDASGSIFDYNTMGWYRQAPGKERELIAVISGTGGSTYYGDSVKGRFTISRDNAKNTVYLEMNSLKPEDTAVYYCAAAWYYSSRAFHATWGHDYWGQGTQVTVSS | low polyreactivity
37 | QVQLVESGGGLVQAGGSLRLSCDASGSIFGGYAMGWYRQAHGKARELVAGISSGGSTYYADSVKGRFTISRDNAKNTVYLQMNSLKPEDTAVYYCATSTYAYRRNSYYYTRPRFGYCGQGTQVTVSS | high polyreactivity
38 | QVQLVESGGGLVQAGGSLRLSCDASGSIFRYYGMGWYRQAPGKERELVAAISARGGSTRYADSVKGRFTISRDNAKNTVYLQMNSLKPEDTAVYYCAAGYPYDYDYWGQGTQVTVSS | high polyreactivity
39 | QVQLVESGGGLVQAGGSLRLSCDASGSIFYNNAMGWYRQAPGKERELVATIRRSGGSTYYADSVKGRFTISRDNAKNTVYLQMNSLKPEDTAVYYCAADYTPDLLSKVDYWGQGTQVTVSS | low polyreactivity
40 | QVQLVESGGGLVQAGGSLRLSCDASGSTFAYNVMGWYRQAPGKERELVAAISRSGGSTYYADSVKGRFTISRDNAKNTVYLQMNSLKPEDTAVYYCAKLFRPRLQDGYWGQGSQVTVSS | high polyreactivity
41 | QVQLVESGGGLVQAGGSLRLSCDASGSTFDTYAMGCYTQAPGKERELVAAITEDGASTYYADSVKGRFTISRDNAKYTVYLQMNSLKPEDTAVYYCAAEPTYWPVWYVLYDYLGQGTQVTVSS | low polyreactivity
42 | QVQLVESGGGLVQAGGSLRLSCDASGSTFGANAMGWYRQAPGKEREFVAAISRSGVRTYYADSVKGRFTISRDNAKNTVYLQMNSLKPEDTAVYYCAADGYWWTYTRYDYWGQGTQVTVSS | low polyreactivity
43 | QVQLVESGGGLVQAGGSLRLSCDASGSTFPSYTMGWSRQAPGKERELVAVIRLSSGSTYYADSVKGRFTISRDNAKNTVYLQMNSLKPEDTAVYYCNTGRYHYFPNYWYDYWGQGTQVTVSS | low polyreactivity

From the nanobody polyreactivity screen of Harvey et al. (2022)
